Substrate in the series: [H][C@@]12COP(=O)(O)O[C@@]1([H])[C@@H](O)[C@H](n1cnc3c(=O)[nH]c(N)nc31)O2
In words: cyclic nucleotide phosphodiesterase assay kit. It counts as biochemical, Drosophila melanogaster.

B1: Prune (Pn) (Drosophila melanogaster) (protein)
chain: MCFLRFLAQARGTLGRHLAEASPVAWAAAPDVSGRKLHLVMGNESCDLDSAVSAVTLAFVYAQRHREHDYVPILNIPRRDYPLKTEVGHLFVKCGIAEPVLLFRDDIPREVVQDVNVILVDHHVSPLAPNVTEILDHRPLEDSSPSFKQLPTLCQLDIDASVGSCATLVAQRYLAEDQPRSTSVAQLLHATIVLDTINFAPAAKRYGPKDEAMVQKLESELNRKDAQRSSLFDELVAARADISKLTLTEVLRKDMKVLQTDRQVVPLAGMPILVRDFVEKSGAEKAVREFGVESNLLVILGMYVSPADGQVQRDLALISLSGQGQFVQRVQQALMESNDPKLELRPHEVDTRFMGGCFLRQHNVQATRKHILPIVKRALLEWEADHACDCDEVYFFKEKPQLGLS
For B1, the Km (commonly the concentration of substrate that gives half-maximal velocity) is 17.97 ± 10.78 µM; the kcat – broadly, the number of substrate molecules converted per active site and unit of time at saturation – amounted to 0.00123 ± 0.00014 s⁻¹.

Source of the values: publication PMC4388618.
